The results in this text go back to patent publication US20050079494A1 (MONSANTO TECHNOLOGY, published 2005).

Data set [1] deals with the molecule itself. Nature of the data set: self-assembly in E. coli; 5-25% sucrose density gradient, SDS-PAGE with Coomassie or anti-FLAG M2 western blot. On the procedure:
(§1) To characterize the expression of the wild-type and epitope-tagged (mature) glycinin A₁ₐB1b protein in E. coli, plasmids pMON65950, pMON65951, and pMON65952 are transformed into E. coli Origami™ (DE3) competent cells according to manufacturer's instructions (Novagen). A single colony is used to inoculate 2 ml LB medium. The culture is grown at 37° C. until a cell density corresponding to A₆₀₀=0.6 is achieved. An amount corresponding to a final concentration of 1 mM isopropyl-1-thio-β-D-galactopyranoside (IPTG) is added to induce protein expression and the culture is incubated at temperatures ranging from 20° to 37° C. at 225 rpm for time periods up to 20 hours. Cells are harvested by centrifugation at 5,000 rpm for 15 min at 4° C. The cell pellet is re-suspended in protein extraction buffer consisting of 20 mM Tris-HCl, pH 7.4, 0.4 M NaCl, 0.1% TritonX-100, 40 μl/ml Protease Inhibitor Cocktail, (stock: 1 tablet/2 ml, Boehringer Mannheim, Indianapolis, Ind.). The cells are then disrupted by sonication (Branson Sonifier 450, Branson Precision Processing, Danbury, Conn.) while maintaining at cold temperature with ice. Soluble proteins are separated from the insoluble fraction by centrifugation at 13,000 rpm for 5 minutes. […]
(In general: Immunoblotting shows a protein as a band on a membrane.)

Data set [2] deals with the molecule itself. Nature of the data set: self-assembly in E. coli; 5-25% sucrose density gradient, SDS-PAGE with Coomassie staining. The protocol: as §1
Data set [3] concerns the molecule itself. Briefly: self-assembly in E. coli; sucrose density gradient, anti-FLAG western blot of fractions. On the procedure: To determine if the recombinant forms of glycinin A₁ₐB1b expressed in E. coli from […], pMON65951, and pMON65952 could self-assemble to form trimers, aliquots of the soluble protein fraction from E. coli lysates are layered onto 12 ml of a 5-25% sucrose density gradient, and centrifuged at 36,000 rpm for 17.5 hours at 20° C. (Sorvall TH-641 rotor; Sorvall Ultra Pro 80 ultracentrifuge). Following centrifugation, the gradient is divided into fractions using a Labconco Autodensi-Flow instrument (Labconco, Kansas City, Mo.), and each fraction is analyzed by SDS-polyacrylamide gel electrophoresis followed either by Coomassie staining or by western blot analysis using Anti-FLAG M2 antibody (Stratagene Corporation, La Jolla, Calif.), to determine which fractions contained glycinin A₁ₐB1b. 7S and 11S soy protein fractions, as well as ovalbumin (45 kD) and aldolase (158 kD), are run as size markers on separate gradients.
This example sets forth confirmation of the protein structure from the expression of modified glycinin A₁ₐB1b clones. The assembly properties of the following modified forms of the protein (indicated by mutant ID number), each containing a different isoleucine substitution, are determined as described in Example 3. Western blot analysis of sucrose gradient fractions is carried out as in Example 3 using anti-FLAG antibody for each of mutants G1-4 through G13-2.

B1: amino-terminal epitope (FLAG)-tagged form of glycinin A1aB1b encoded by pMON65951 (other)
chain: MDYKDDDDKFSSREQPQQNECQIQKLNALKPDNRIESEGGLIETWNPNNKPFQCAGVALSRCTLNRNALRRPSYTNGPQEIYIQQGKGIFGMIYPGCPSTFEEPQQPQQRGQSSRPQDRHQKIYNFREGDLIAVPTGVAWWMYNNEDTPVVAVSIIDTNSLENQLDQMPRRFYLAGNQEQEFLKYQQEQGGHQSQKGKHQQEEENEGGSILSGFTLEFLEHAFSVDKQIAKNLQGENEGEDKGAIVTVKGGLSVIKPPTDEQQQRPQEEEEEEEDEKPQCKGKDKHCQRPRGSQSKSRRNGIDETICTMRLRHNIGQTSSPDIYNPQAGSVTTATSLDFPALSWLRLSAEFGSLRKNAMFVPHYNLNANSIIYALNGRALIQVVNCNGERVFDGELQEGRVLIVPQNFVVAARSQSDNFEYVSFKTNDTPMIGTLAGANSLLNALPEEVIQHTFNLKSQQARQIKNNNPFKFLVPPQESQKRAVA
notes: Mature glycinin A1aB1b with start Met and N-terminal FLAG, made in E. coli; self-assembles to trimers; also called pMON65951 protein
B1: the binding result in data set [1] is “binds”.

B2: carboxy-terminal epitope (FLAG)-tagged form of glycinin A1aB1b encoded by pMON65952 (other)
chain: MFSSREQPQQNECQIQKLNALKPDNRIESEGGLIETWNPNNKPFQCAGVALSRCTLNRNALRRPSYTNGPQEIYIQQGKGIFGMIYPGCPSTFEEPQQPQQRGQSSRPQDRHQKIYNFREGDLIAVPTGVAWWMYNNEDTPVVAVSIIDTNSLENQLDQMPRRFYLAGNQEQEFLKYQQEQGGHQSQKGKHQQEEENEGGSILSGFTLEFLEHAFSVDKQIAKNLQGENEGEDKGAIVTVKGGLSVIKPPTDEQQQRPQEEEEEEEDEKPQCKGKDKHCQRPRGSQSKSRRNGIDETICTMRLRHNIGQTSSPDIYNPQAGSVTTATSLDFPALSWLRLSAEFGSLRKNAMFVPHYNLNANSIIYALNGRALIQVVNCNGERVFDGELQEGRVLIVPQNFVVAARSQSDNFEYVSFKTNDTPMIGTLAGANSLLNALPEEVIQHTFNLKSQQARQIKNNNPFKFLVPPQESQKRAVADYKDDDDK
notes: Mature glycinin A1aB1b with C-terminal FLAG, made in E. coli; self-assembles to trimers; Template of the isoleucine mutants; also called pMON65952 protein
Regarding B2, the binding result in data set [1] is reported as “binds”.

B3: mature form (plus additional methionine encoded by start codon) of glycinin A1aB1b encoded by pMON65950 (other)
chain: MFSSREQPQQNECQIQKLNALKPDNRIESEGGLIETWNPNNKPFQCAGVALSRCTLNRNALRRPSYTNGPQEIYIQQGKGIFGMIYPGCPSTFEEPQQPQQRGQSSRPQDRHQKIYNFREGDLIAVPTGVAWWMYNNEDTPVVAVSIIDTNSLENQLDQMPRRFYLAGNQEQEFLKYQQEQGGHQSQKGKHQQEEENEGGSILSGFTLEFLEHAFSVDKQIAKNLQGENEGEDKGAIVTVKGGLSVIKPPTDEQQQRPQEEEEEEEDEKPQCKGKDKHCQRPRGSQSKSRRNGIDETICTMRLRHNIGQTSSPDIYNPQAGSVTTATSLDFPALSWLRLSAEFGSLRKNAMFVPHYNLNANSIIYALNGRALIQVVNCNGERVFDGELQEGRVLIVPQNFVVAARSQSDNFEYVSFKTNDTPMIGTLAGANSLLNALPEEVIQHTFNLKSQQARQIKNNNPFKFLVPPQESQKRAVA
notes: Soybean seed storage protein subunit made in E. coli Origami (DE3), no FLAG tag; also called wild-type (mature) glycinin A1aB1b; native form
For the protein B3, the binding result in data set [2] was “binds”.

B4: glycinin A1aB1b mutant g3-5 (other)
chain: FSSREQPQQNECQIQKLNAIKPDNRIESEGGLIETWNPNNKPFQCAGVALSRCTLNRNALRRPSYTNGPQEIYIQQGKGIFGMIYPGCPSTFEEPQQPQQRGQSSRPQDRHQKIYNFREGDIIAVPTGVAWWMYNNEDTPVVAVSIIDTNSIENQLDQMPRRFYLAGNQEQEFLKYQQEQGGHQSQKGKHQQEEENEGGSILSGFTLEFLEHAFSVDKQIAKNLQGENEGEDKGAIVTVKGGLSVIKPPTDEQQQRPQEEEEEEEDEKPQCKGKDKHCQRPRGSQSKSRRNGIDETICTMRLRHNIGQTSSPDIYNPQAGSVTTATSLDFPAISWLRLSAEFGSIRKNAMFVPHYNLNANSIIYAINGRALIQVVNCNGERVFDGELQEGRVLIVPQNFVVAARSQSDNFEYVSFKTNDTPMIGTLAGANSLLNALPEEVIQHTFNLKSQQARQIKNNNPFKFLVPPQESQKRAVADYKDDDDK
Turning to B4, the binding result in data set [3] is recorded as “no binding”.

B5: glycinin A1aB1b mutant g10-10 (other)
chain: FSSREQPQQNECQIQKLNALKPDNRIESEGGLIETWNPNNKPFQCAGVALSRCTLNRNAIRRPSYTNGPQEIYIQQGKGIFGMIYPGCPSTFEEPQQPQQRGQSSRPQDRHQKIYNFREGDLIAVPTGVAWWMYNNEDTPVVAVSIIDTNSLENQLDQMPRRFYLAGNQEQEFLKYQQEQGGHQSQKGKHQQEEENEGGSILSGFTLEFLEHAFSVDKQIAKNLQGENEGEDKGAIVTVKGGLSVIKPPTDEQQQRPQEEEEEEEDEKPQCKGKDKHCQRPRGSQSKSRRNGIDETICTMRIRHNIGQTSSPDIYNPQAGSVTTATSLDFPALSWIRLSAEFGSLRKNAMFVPHYNLNANSIIYALNGRALIQVVNCNGERVFDGELQEGRVIIVPQNFVVAARSQSDNFEYVSFKTNDTPMIGTLAGANSLLNALPEEVIQHTFNLKSQQARQIKNNNPFKFLVPPQESQKRAVADYKDDDDK
With B5, the binding result in data set [3] is recorded as “no binding”.

B6: glycinin A1aB1b mutant g6-4 (other)
chain: FSSREQPQQNECQIQKLNAIKPDNRIESEGGLIETWNPNNKPFQCAGVALSRCTLNRNALRRPSYTNGPQEIYIQQGKGIFGMIYPGCPSTFEEPQQPQQRGQSSRPQDRHQKIYNFREGDLIAVPTGVAWWMYNNEDTPVVAVSIIDTNSIENQLDQMPRRFYLAGNQEQEFLKYQQEQGGHQSQKGKHQQEEENEGGSILSGFTLEFLEHAFSVDKQIAKNLQGENEGEDKGAIVTVKGGLSVIKPPTDEQQQRPQEEEEEEEDEKPQCKGKDKHCQRPRGSQSKSRRNGIDETICTMRLRHNIGQTSSPDIYNPQAGSVTTATSLDFPAISWLRLSAEFGSIRKNAMFVPHYNLNANSIIYAINGRALIQVVNCNGERVFDGELQEGRVLIVPQNFVVAARSQSDNFEYVSFKTNDTPMIGTLAGANSLLNALPEEVIQHTFNLKSQQARQIKNNNPFKFLVPPQESQKRAVADYKDDDDK
B6: the binding result in data set [3] is given as “no binding”.

B7: glycinin A1aB1b mutant g6-7 (other)
chain: FSSREQPQQNECQIQKLNAIKPDNRIESEGGLIETWNPNNKPFQCAGVALSRCTLNRNALRRPSYTNGPQEIYIQQGKGIFGMIYPGCPSTFEEPQQPQQRGQSSRPQDRHQKIYNFREGDIIAVPTGVAWWMYNNEDTPVVAVSIIDTNSLENQLDQMPRRFYLAGNQEQEFLKYQQEQGGHQSQKGKHQQEEENEGGSILSGFTLEFLEHAFSVDKQIAKNLQGENEGEDKGAIVTVKGGLSVIKPPTDEQQQRPQEEEEEEEDEKPQCKGKDKHCQRPRGSQSKSRRNGIDETICTMRLRHNIGQTSSPDIYNPQAGSVTTATSLDFPAISWLRLSAEFGSIRKNAMFVPHYNLNANSIIYAINGRALIQVVNCNGERVFDGELQEGRVLIVPQNFVVAARSQSDNFEYVSFKTNDTPMIGTLAGANSLLNALPEEVIQHTFNLKSQQARQIKNNNPFKFLVPPQESQKRAVADYKDDDDK
Take B7: the binding result in data set [3] is on record as “no binding”.
